Laboratory results as given in patent publication US20110207796A1, “ALPHA-SYNUCLEIN KINASE” (Elan Pharma International Limited, priority 2008, published 2011).

B1: Protein kinase, cGMP-dependent, regulatory, Type I (enzyme, human, UniProt Q13976-2 1-686, looked up)
chain: MGTLRDLQYALQEKIEELRQRDALIDELELELDQKDELIQKLQNELDKYRSVIRPATQQAQKQSASTLQGEPRTKRQAISAEPTAFDIQDLSHVTLPFYPKSPQSKDLIKEAILDNDFMKNLELSQIQEIVDCMYPVEYGKDSCIIKEGDVGSLVYVMEDGKVEVTKEGVKLCTMGPGKVFGELAILYNCTRTATVKTLVNVKLWAIDRQCFQTIMMRTGLIKHTEYMEFLKSVPTFQSLPEEILSKLADVLEETHYENGEYIIRQGARGDTFFIISKGTVNVTREDSPSEDPVFLRTLGKGDWFGEKALQGEDVRTANVIAAEAVTCLVIDRDSFKHLIGGLDDVSNKAYEDAEAKAKYEAEAAFFANLKLSDFNIIDTLGVGGFGRVELVQLKSEESKTFAMKILKKRHIVDTRQQEHIRSEKQIMQGAHSDFIVRLYRTFKDSKYLYMLMEACLGGELWTILRDRGSFEDSTTRFYTACVVEAFAYLHSKGIIYRDLKPENLILDHRGYAKLVDFGFAKKIGFGKKTWTFCGTPEYVAPEIILNKGHDISADYWSLGILMYELLTGSPPFSGPDPMKTYNIILRGIDMIEFPKKIAKNAANLIKKLCRDNPSERLGNLKNGVKDIQKHKWFEGFNWEGLRKGTLTPPIIPSVASPTDTSNFDSFPEDNDEPPPDDNSGWDIDF
B2: synphilin (protein, UniProt Q9Y6H5 1-919, looked up)
chain: MEAPEYLDLDEIDFSDDISYSVTSLKTIPELCRRCDTQNEDRSVSSSSWNCGISTLITNTQKPTGIADVYSKFRPVKRVSPLKHQPETLENNESDDQKNQKVVEYQKGGESDLGPQPQELGPGDGVGGPPGKSSEPSTSLGELEHYDLDMDEILDVPYIKSSQQLASFTKVTSEKRILGLCTTINGLSGKACSTGSSESSSSNMAPFCVLSPVKSPHLRKASAVIHDQHKLSTEETEISPPLVKCGSAYEPENQSKDFLNKTFSDPHGRKVEKTTPDCQLRAFHLQSSAAESKPEEQVSGLNRTSSQGPEERSEYLKKVKSILNIVKEGQISLLPHLAADNLDKIHDENGNNLLHIAASQGHAECLQHLTSLMGEDCLNERNTEKLTPAGLAIKNGQLECVRWMVSETEAIAELSCSKDFPSLIHYAGCYGQEKILLWLLQFMQEQGISLDEVDQDGNSAVHVASQHGYLGCIQTLVEYGANVTMQNHAGEKPSQSAERQGHTLCSRYLVVVETCMSLASQVVKLTKQLKEQTVERVTLQNQLQQFLEAQKSEGKSLPSSPSSPSSPASRKSQWKSPDADDDSVAKSKPGVQEGIQVLGSLSASSRARPKAKDEDSDKILRQLLGKEISENVCTQEKLSLEFQDAQASSRNSKKIPLEKRELKLARLRQLMQRSLSESDTDSNNSEDPKTTPVRKADRPRPQPIVESVESMDSAESLHLMIKKHTLASGGRRFPFSIKASKSLDGHSPSPTSESSEPDLESQYPGSGSIPPNQPSGDPQQPSPDSTAAQKVATSPKSALKSPSSKRRTSQNLKLRVTFEEPVVQMEQPSLELNGEKDKDKGRTLQRTSTSNESGDQLKRPFGAFRSIMETLSGNQNNNNNYQAANQLKTSTLPLTSLGRKTDAKGNPASSASKGKNKAA

How the values were obtained:
[1] = target: human alpha-synuclein (wild-type, recombinant) (human); experiment: cell-based or functional assay
[2] = target: Polo like kinase 2 (PLK2) (human); experiment: cell-based or functional assay

Binder	percentage of phospho-synuclein by ELISA, cDNA transfected into PEAK-Syn cells [1]	percent phospho-synuclein by ELISA, PLK2, synuclein and synphilin co-transfected into HEK cells [2]
B1	8.9%	
B2		83.3%
